How the values were obtained:
[1] = target: human CSF-1 receptor full-length ectodomain, domains D1-D5 (hCSF-1R_(D1-D5)) (human) (UniProt P07333); experiment: SAXS
[2] = target: human Colony Stimulating Factor-1 (hCSF-1), residues 1-149 (human); experiment: field-flow fractionation
[3] = target: human CSF-1 receptor full-length ectodomain, domains D1-D5 (hCSF-1R_(D1-D5)) (human) (UniProt P07333); experiment: field-flow fractionation
Target sequence in this assay (P07333 20-517): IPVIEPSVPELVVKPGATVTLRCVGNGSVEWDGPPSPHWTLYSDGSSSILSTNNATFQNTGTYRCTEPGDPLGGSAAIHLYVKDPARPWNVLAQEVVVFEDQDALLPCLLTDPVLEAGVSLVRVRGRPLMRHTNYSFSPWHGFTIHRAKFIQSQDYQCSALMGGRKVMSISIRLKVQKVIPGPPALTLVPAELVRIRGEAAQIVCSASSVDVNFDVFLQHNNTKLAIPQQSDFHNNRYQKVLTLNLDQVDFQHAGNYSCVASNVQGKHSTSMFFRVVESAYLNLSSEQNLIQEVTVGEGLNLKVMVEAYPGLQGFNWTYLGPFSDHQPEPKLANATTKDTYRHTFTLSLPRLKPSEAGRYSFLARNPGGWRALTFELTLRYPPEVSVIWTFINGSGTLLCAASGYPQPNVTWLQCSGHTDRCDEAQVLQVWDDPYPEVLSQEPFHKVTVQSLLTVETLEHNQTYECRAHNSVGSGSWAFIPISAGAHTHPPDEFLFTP

[4] = target: human CSF-1 receptor full-length ectodomain, domains D1-D5 (hCSF-1R_(D1-D5)) (human) (UniProt P07333); experiment: ITC
Target sequence in this assay (P07333 20-517): as above

[5] = target: mouse CSF-1 receptor full-length ectodomain, domains D1-D5 (mCSF-1R_(D1-D5)) (mouse) (UniProt P09581); experiment: ITC
[6] = target: mouse CSF-1 receptor, first three extracellular domains (mCSF-1R_(D1-D3)) (mouse) (UniProt P09581); experiment: ITC
mouse CSF-1 receptor, first three extracellular domains (mCSF-1R_(D1-D3)) (mouse), sequence (P09581 20-298): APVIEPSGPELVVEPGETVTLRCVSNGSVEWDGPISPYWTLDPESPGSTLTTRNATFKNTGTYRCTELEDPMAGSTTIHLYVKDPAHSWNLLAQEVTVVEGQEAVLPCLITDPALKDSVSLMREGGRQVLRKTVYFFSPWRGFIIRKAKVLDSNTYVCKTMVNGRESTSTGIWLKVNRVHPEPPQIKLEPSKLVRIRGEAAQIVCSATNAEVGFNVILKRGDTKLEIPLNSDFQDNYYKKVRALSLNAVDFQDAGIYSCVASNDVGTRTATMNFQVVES

mouse CSF-1 receptor full-length ectodomain, domains D1-D5 (mCSF-1R_(D1-D5)) (mouse), sequence (P09581 20-515): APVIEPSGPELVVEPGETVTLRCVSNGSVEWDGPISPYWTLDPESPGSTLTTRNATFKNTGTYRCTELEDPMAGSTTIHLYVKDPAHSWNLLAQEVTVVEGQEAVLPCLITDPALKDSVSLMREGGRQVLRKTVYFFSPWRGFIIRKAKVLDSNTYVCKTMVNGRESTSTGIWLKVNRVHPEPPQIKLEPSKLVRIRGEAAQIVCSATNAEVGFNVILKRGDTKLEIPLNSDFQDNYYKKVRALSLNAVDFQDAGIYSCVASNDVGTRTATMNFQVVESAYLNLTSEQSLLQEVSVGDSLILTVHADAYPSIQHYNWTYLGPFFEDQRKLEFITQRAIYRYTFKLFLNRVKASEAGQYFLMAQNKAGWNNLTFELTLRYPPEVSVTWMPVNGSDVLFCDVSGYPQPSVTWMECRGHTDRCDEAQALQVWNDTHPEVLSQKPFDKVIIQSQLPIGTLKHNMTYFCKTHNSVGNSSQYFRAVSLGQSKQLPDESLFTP

stoichiometry N [1] | stoichiometry N [2] | stoichiometry N (CSF-1 dimer per receptor) [3] | Kd [4] | stoichiometry N (CSF-1 dimer per receptor) [4] | Kd [5] | stoichiometry N (CSF-1 dimer per receptor) [5] | stoichiometry N (CSF-1 dimer per receptor) [6] | Substance
2 |  |  |  |  |  |  |  | human CSF-1 receptor full-length ectodomain, domains D1-D5 (hCSF-1R_(D1-D5)) (from UniProt P07333 20-517)
 | 2 | 0.5 | 0.0136 µM | 0.5 | 0.0662 µM | 0.5 |  | human Colony Stimulating Factor-1 (hCSF-1), residues 1-149 (ligand)
 |  |  | 2.8 µM | 0.5 | 0.0217 µM | 0.5 | 0.5 | mouse Colony Stimulating Factor-1 (mCSF-1), residues 1-149 (ligand)
